Target: Histone H4 N-terminal peptide, biotinylated (1–23) (UniProt P62805 2-24, biotin (position not given))
Experiment: pull-down

binding result: binds
Binder: SATICRVCQKPGDLVMCNQCEFCFHLDCHLPALQDVPGEEWSCSLCHVLP (domain or fragment, UniProt Q13263 624-673, looked up) [GST-tagged KAP1 PHD (residues 624–673)]

— publication PMC7305985 (Molecular cell, 2020)
